From patent US20250155438A1 (KING ABDULAZIZ UNIVERSITY, published 2025) come the findings set out here.

For this experiment, the target named is T1, SARS-CoV-2 nucleocapsid protein (SARS-CoV-2, UniProt P0DTC9 1-419).
T1 construct: also called NCAP; N-capsid

B1: anti-NCAP-2 nanobody (VHH, not shown: small tags and cut ends)
VHH: QVQLVESGGALMQAGGSLRLSCAVSGIRLGYYTIAWFRQAPGKEREGISCISRSEGSTYYADSVKGRFTISTENAENTVYLQMNSLKPDDTAVYYCAVDFVPASHCAVANTKGYDYWGQGTQVTVSS
notes: also called N Capsid nanobody NCAP-2
On to B1, for which the binding result is listed as “binds”.
